From the DeepSol protein solubility set

test: soluble on expression in E. coli; label from the status in PepcDB or PDB records

Sequence | soluble on expression in E. coli
MAPKFTLNQERDNDRERTRASYNNDRRRNDYDPRACYKCGKLGHFARSCHVVTQPTTAYITCYFCSEEGHRSNGCPNKRTDQVNPKGHCYWCGNQDHRFNLIIWRSRCLFRLMKPKYAF | soluble
MAHHHHHHMNEKNKDINKYTSTNNMYKLSENNHKSLLENLKRRGIIDDDDVYNTMLQVDRGKYIKEIPYIDTPVYISHGVTISAPHMHALSLKRLINVLKPGSRAIDVGSGSGYLTVCMAIKMNVLENKNSYVIGLERVKDLVNFSLENIKRDKPELLKIDNFKIIHKNIYQVNEEEKKELGLFDAIHVGASASELPEILVDLLAENGKLIIPIEEDYTQVLYEITKKNGKIIKDRLFDVCFVSLKKN | not soluble
MAHHHHHHMRCCSTALRTGRRGPGGWTEPRLQQATSTDFMRDSTGTGGDNNNNNNNDGGKGPSSALKRHFNVNDFSMIERQQMTLTKLMRITMDATFKPKDPDSRTYGGDGATQRAALREELKTMDSRIVPFAHEEILNDYLKNIVELSGPSGQRYDREMLRGRLVGLLFFTETDRSLAFMRLLREFHQRHRRDFVVVAISLGGKEMMDITRQHGFYHCSHRDGATWVQRDTGLMVRPWTPLPRLIVVNGTSGEEITSSGVTAVKAHPNTCFEKWKNGEEGCDWWDYIKTFYM | soluble
GMTESDRDYIQSIERGFAVLLAFDAQRPNPTLAELATEAGLSRPAVRRILLTLQKLGYVAGSGGRWSLTPRVLSIGQHYSESHALIEAAMPRLLEVAEKTQESASLGVLDGADVVYAARVPVRRIMSINVSVGTRVPAYATSMGRALLAWAPADVVERVVAESTFQKLGPETIGTAAELERELAKVREQGFALTSEELEKGLISLAAPVHDAGGTVVGVVACSTSSARNTPAQFREQAVPCVLAAAAALSADMGFAG | soluble
MHINRTGSSQPSIELERFYSASQSLASSSVRELSPAEHANLQAITDYLKDHVFAAHKLPLSESAVDQDAVHAHNEQLDKIIDARARRLLDEGETPATIADTFAKAEKFDRMATTASITLRATPFAAASVLQYMQPAINKGDWLPMPLKPLTPFVSGALSGIMDQVGTTVMNRATGNLHYLSTPPEKLHDAMAASVKRHSPGVMRQAVDLGIAIQAYSARNAVRTVLAPALASRPAVQGAVDISVSAAGGLAANAGFGNRMHSVQARDHLRGGAFVLGIKDQEPKADLSEETDWLVAYKAIKSASYSGAALNAGKRVAGLPLDVATDGLKAVRSLVSATGLAQNGLALAGGFAGVGKLQEMATKNITDPATKAAVSQLTNMAASTGVFAAWTTAAVATDPAVKKAESFLQDTVKSAASSSTSYVADQTVKLAKAGIDASGEAIAATGASLLDTLRRRNAREPDIEEGGIAAGSPSAVPFQPGRS | not soluble
MKIFAVVVTYNRLALLKKVIDLLKRQTRQLDSIVIVNNGSTDGTKEWLEQEKNITLINQSNSGGAGGFETGVKYAYENEADWIWMMDDDVFPNIDCLEKLLGWTSISQCIQPRRYYSDDVEVNFEQWLDPITYSKFGYWQEKSFNNGKKFCAINVGCFEGMFVSKSIVNKIGFPDKRFFIAEDDTIYGFAASFYTNVILVSDAIMVRARRSSDRSVSPMYTYYACRNFHLVYESLNLLLDKKNRFLYIKYIYQFVHQIYLSIFLYDNKMKHLISVFRGFYDCFRKKNGATYLEHHHHHH | not soluble
MKLAAKTFTPSTADLPFTDAGASEDSGMANKPGEPAFQLWLDVKKVVFPTTSEPSYVNLRLHNPTDKRITFKVRCTSAELFRVQPPIAFINAGATVNLVMWSANTHLQPEKKHYFAFYHKNASPSARQSPPLWKDGLKDAEGVRRIPVVFLPPSS | not soluble
MAFNIESLLEKKSNPVEEGNDFEEENDSEKNGEEDEEEEEKNVIDGWTNMATSQLAMFAIANDLRTPTLVELQMLLGVSARKHDYKRSRKSVCERKPRQAYSARQLDRLETEFQTDKYLSVNKRIQLSQTLNLTETQIKTWFQNRRTKWKKQLTSSIRQMVKDAPTSTSVGVPFQSLLTPPTPPTTLACHVNSLFACEQ | not soluble
MSLNSTFSIVDLETTAPFKEGGHIIQIGISFVKNWKIINNFQTMVNPGVKIPEQIVDLTGIKNEDVENAPYFEDLARMIHDQLSGTVFVAHNVRYDFPYLNGEFARIKMRRLRLEYVDTVQLAQIVFPTMNSYKLDELVSKLGINLPRHHRADQDASATAQLFLKIHEHLQEFPQNTLNNLINHSKSLLGNTETIFQLSKGKRTFPGDRYGPFDIARLKKIDKGQLIKWIEAKKQSSLSKPLPATVLRPRQESFANILQSKITGKNNKIFSVFSRPRFGKTNAYLDLAVKIAAKGYKILIIEENYLRRRSTFQKSQSLFPENKDLFQIPITRKDFVSLDKLADAFLTEDNPSRQLAKLRVISWLLKSRTGNLNEFVNGFPEPLFNFFSDQDSPNKFDYFERSISSYTFPSIAITDLDSFLRTKNEFSREYNLFIFDVDKGVSNLIDMLPFFSKKIILFTQAQSYIKNWYSIRDFSDMNSVILSLGSELKEGHHHHHH | not soluble
MRAAFRTLGCKVNQVETEALLGFLKALEPEVVPLEAGGADLVVINSCAVTTTAEADTRKEVRRARRYNPHAFIVVTGCYAELAPEVLKELGADAVVPNARKAELPRVILERFGLPSDPITTPPNEFWGAGERGLLNSRVRAFLKVQDGCQAGCAYCIIPRLRGKERHRDHREALAEAEALLRMGIKEIVLTGVRLGSYKGHPRGLAGLVEDLYHLGAKVRLSSIEPEDTGEDLLKVIGRYAPEVRPHLHLSLQTGSDRLLKLMGRRYDKAYYRELVQRAYDLIPGFALTTDVIAGLPTETEEEHRETLAFLEELRPTRVHAFTYTPRPKTRAASMPQVPPEVRKRRTKELIALAQRLAEERIRPRLGERVEVLVERVQGGEALGHTPDYYEARLEGEARPGETVWARVHGVEGYVLLGRVEGVKEGARGPLELPVR | soluble
ELLKSGKAKDRFEGEENAPVTIVEYASLTCVHCAHFYNDVLPQIRKKYIKTGKVKLIFRDFAFDSRATAGFMLARCAPEDRYFPLIEVLFQKQSEWVWARDAVTPLKKIGLMAGFTDESFNACLKNQSILDEVNASFERGKELGVNATPTFFINGNKYEGAMSVEAFFSVIDSFLKN | not soluble
MSLIMSEPPQLTTPDDKDVENRKHSSTYSISNLLLEKKESSPSGSSSEDDSASSNDDDQRSPSATSSFIFPPASSSSSSESATSPTQIMAQLMANGGAVDPGLQAYFFLLQSQLNSQSMMNRVTQENVSRALTSFNLLNNLPGALPSLSPMGRLQHSMQLSPNSLNMQKKQSRPTFTGHQIYQLERKFEQTKYLAGADRAQLAQELNMSESQVKVWFQNRRTKWRKKEAADNALVKRGASGDKSPCSLSPFLSAGI | not soluble
LTDIRKKAATTLEKQIKQELNQLYMEKAIFSVHFESDKTELTESGQDSVVFYMSTNPGEPLKPLAKIASGGELSRMMLALKTIFSRHQGITSIIFDEVDTGVSGRVGQAIAEKIYAVSVGSQVLCISHLPQVAAMANHHYYITKKVQNKRTTTSVTILKGEQKVEEISRMIAGIEVTELTKQHAKEMIQQAEKVKQTY | not soluble
NTLTVKMNDALSSGTGENIGEITVSETPYGLLFTPHLNGLTPGIHGFHVHTNPSCMPGMKDGKEVPALMAGGHLDPEKTGKHLGPYNDKGHLGDLPGLVVNADGTATYPLLAPRLKSLSELKGHSLMIHKGGDNYSDKPAPLGGGGARFACGVIEK | soluble
MVATEKKFTLRHIFKNVSQLEDGKYLYSPDEDHFNVDWNMSISHKKEKLGVYFYCYKSEESASAWSIDTEYDLALKNSSGKRISIDFKYKFSTSTGFGTAELVSWDAMIKDYLIDDVIIMEATVKIINLMGIPKKTLRTFDESNEEFSDVILTVEDEKFYVLKQFLASHSSHFKTLFLRKCEEEAEKSEYTLQDINSIDFQNLLEVLHGEPAIDEETVQGIRDLADKYDMPFPTRKCEEFLIDLSEKSIKEKLKIAKQFQLEKLKMHCLSKIETVDHIKAAMTGDPIEMDLSVLAALLGKSLALH | not soluble
MIRSATKEDGQAIARLVLVILKDMELPILEEVSEEQMIDLLAEATAYPTYRYGYQRILVYEHAGEVAGIAVGYPAEDEKIIDEPLREVFKKHGLAEDVRLFIEEETLPNEWYLDTISVDERFRGMGIGSKLLDALPEVAKASGKQALGLNVDFDNPGARKLYASKGFKDVTTMTISGHLYNHMQKEV | not soluble
